Experiment [1] has as its target T1, MURF-1 (Muscle RING Finger 1), native protein without epitope tag (murine, UniProt Q9ERP3 1-366).
T1 construct: 366 amino acid protein, 41 kDa; also called endogenous MURF-1; native MURF-1
T1 sequence: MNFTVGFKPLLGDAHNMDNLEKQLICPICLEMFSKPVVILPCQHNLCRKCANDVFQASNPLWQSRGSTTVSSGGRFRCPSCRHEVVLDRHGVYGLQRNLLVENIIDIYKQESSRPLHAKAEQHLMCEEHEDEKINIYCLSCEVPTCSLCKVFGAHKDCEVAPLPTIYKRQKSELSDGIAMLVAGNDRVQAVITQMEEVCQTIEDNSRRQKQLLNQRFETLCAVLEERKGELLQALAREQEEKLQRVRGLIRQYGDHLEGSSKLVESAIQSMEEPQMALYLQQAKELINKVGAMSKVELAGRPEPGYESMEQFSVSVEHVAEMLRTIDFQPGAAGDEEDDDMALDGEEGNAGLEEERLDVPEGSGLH
The experiment can be described thus: immunofluorescence in cotransfected Hela cells, legend of FIGS. 6B-D. The text has this:
(§1) The leucine-rich coiled-coil domain mediates homo-oligomerization of MURF-1. FIGS. 6B-D. MURF-1 binds to microtubules in a homo-oligomeric form. Hela Cells were transfected with Flag-tagged full-length MURF alone (FIG. 6B) or in combination with myc-tagged MURF-1 (FIGS. 6C and 6D) and immunofluorescence performed. Flag-tagged MURF-1 forms aggregates in the cytoplasm of the cell. In the presence of myc-tagged MURF-1, the Flag-tagged MURF-1 and myc-tagged MURF-1 are colocalized in filamentous structures in the cell. Identical results were obtained using native MURF-1 lacking an epitope tag.
For immunofluorescence, cells were extracted with 1% Triton X-100 in PBS for 1 minute, washed twice in PBS, and fixed for 15 minutes in 3.7% formalin in PBS. Cells were then washed three times in PBS and blocked in PBS containing 3% Bovine Serum Albumin and 0.1% NP40 for 30 minutes. All antibodies were incubated in fresh block solution for 60 minutes at ambient temperature. Myc-tagged versions of MURF-1 were detected using antibody 9E10 (Santa Cruz) at a dilution of 1:250. Flag-tagged versions of MURF-1 were detected using the M2 Flag antibody at a dilution of 1:500 (Kodak). Microtubules were detected using alpha-tubulin antibody at a dilution of 1:2000 (Sigma). Intermediate filaments were visualized using vimentin antibody at a dilution of 1:500 (Sigma). […]

The target in experiment [2] is T2, full-length MURF-1 with C-terminal myc tag (murine, UniProt Q9ERP3 1-366).
T2 construct: Expressed in transfected cells (Hela, Cos, 293T and others) or translated in vitro with 35S-methionine; also called myc-tagged MURF-1; myc-tagged MURF; not shown: C-terminal myc/HIS tag of vector pcDNA3.1 myc/HIS (Invitrogen)
T2 sequence: T1 sequence
Put plainly: co-immunoprecipitation of 35S-labeled in vitro translated myc-tagged and Flag-tagged MURF-1 with Flag antibody M2.
Source text: as §1, with “FIGS. 6A-6D—Mapping domains of MURF-1 required for homo-oligomerization. FIG. 6A. Various forms of N-terminal Flag-tagged MURF-1 and full-length C-terminal myc-tagged MURF-1 were in vitro translated in the presence of ³⁵S-methionine and immunoprecipitation performed as described in Material and Methods. The” for “The”
In vitro transcription/translation was performed as directed by the manufacturer (Promega). Plasmids used were C-terminally myc-tagged full-length MURF-1 and various Flag-tagged deletions of MURF-1. Immunoprecipitations were performed using ³⁵S-methionine-labelled in vitro translation products. Briefly, ³⁵S-methionine-labelled products were incubated with agitation in 1 ml of immunoprecipitation buffer (PBS, 0.5% Triton X-100, 0.25 mM zinc sulphate) at 4° C. for 2 hours. […]

B1: full-length MURF-1 with N-terminal Flag tag (other)
chain: T1 sequence
notes: Translated in vitro with 35S-methionine for immunoprecipitation, or expressed in Hela cells; also called Flag-tagged MURF-1; Flag-MURF-1; not shown: N-terminal Flag tag (vector pECE-Flag, subcloned into pcDNA3.1)
Turning to B1, the binding result in experiment [1] and in experiment [2] was “binds” each time.

The record behind these values is patent US20040132160A1 (University of Texas, published 2004).
